Laboratory results reported in patent US20250361295A1 (ANTENGENE BIOLOGICS, published 2025).

How the values were obtained:
human LILRB4 [1] = target: T1, human LILRB4 (human, UniProt Q8NHJ6 22-448); assay: ELISA and FACS on 293F-hLILRB4 cells
T1 construct: whole, on cells; the same id is used for LILRB4 on THP-1, MV-4-11 and tolerogenic dendritic cells in the functional assays; also called hLILRB4

human LILRA6 protein = target: T2, human LILRA6 protein (human, UniProt Q6PI73 24-447, limits assumed); assay: ELISA, LILRA6 protein
T2 construct: protein for ELISA; construct not described; also called hLILRA6 protein
T2 sequence (Q6PI73 24-447 limits assumed): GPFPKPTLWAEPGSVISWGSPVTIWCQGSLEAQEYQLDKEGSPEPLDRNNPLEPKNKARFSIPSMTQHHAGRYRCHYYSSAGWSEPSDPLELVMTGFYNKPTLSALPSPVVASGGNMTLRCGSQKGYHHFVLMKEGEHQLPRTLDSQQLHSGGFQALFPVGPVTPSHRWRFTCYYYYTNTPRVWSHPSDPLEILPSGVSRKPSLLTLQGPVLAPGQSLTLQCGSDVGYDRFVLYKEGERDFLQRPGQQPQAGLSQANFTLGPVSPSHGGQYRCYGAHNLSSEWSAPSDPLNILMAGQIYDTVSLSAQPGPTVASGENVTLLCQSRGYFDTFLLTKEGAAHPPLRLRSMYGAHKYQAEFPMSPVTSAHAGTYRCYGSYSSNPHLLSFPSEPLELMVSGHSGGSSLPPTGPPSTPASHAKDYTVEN

human LILRB3 = target: T3, human LILRB3 (human, UniProt O75022 24-631); assay: FACS, 293F-hLILRB3 cells
T3 construct: whole, on cells; also called hLILRB3
T3 sequence (O75022 24-631): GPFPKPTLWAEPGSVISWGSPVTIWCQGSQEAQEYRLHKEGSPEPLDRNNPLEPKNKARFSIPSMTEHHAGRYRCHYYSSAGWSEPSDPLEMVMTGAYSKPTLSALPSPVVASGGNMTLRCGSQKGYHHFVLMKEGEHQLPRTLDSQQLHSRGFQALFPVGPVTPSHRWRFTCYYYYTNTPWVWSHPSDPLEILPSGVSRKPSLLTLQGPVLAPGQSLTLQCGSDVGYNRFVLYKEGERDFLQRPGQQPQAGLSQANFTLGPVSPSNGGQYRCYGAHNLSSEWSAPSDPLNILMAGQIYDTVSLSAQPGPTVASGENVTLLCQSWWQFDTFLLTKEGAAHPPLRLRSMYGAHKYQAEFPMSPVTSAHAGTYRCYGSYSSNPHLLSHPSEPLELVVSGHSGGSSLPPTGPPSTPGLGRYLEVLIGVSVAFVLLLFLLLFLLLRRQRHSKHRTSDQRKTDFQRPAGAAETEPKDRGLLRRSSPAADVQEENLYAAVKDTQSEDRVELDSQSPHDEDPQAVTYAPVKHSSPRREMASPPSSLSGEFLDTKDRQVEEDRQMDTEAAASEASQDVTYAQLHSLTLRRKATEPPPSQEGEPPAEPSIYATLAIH
Outline: (§1)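 Cells expressing the target (2×10⁵/well) were incubated with antibody for 1 h at 4 °C, washed, and stained with secondary antibody for 1 h at 4 °C in the dark. Binding was read by flow cytometry.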

human LILRB4 [2] = target: T1, human LILRB4; assay: cell-based or functional assay
human LILRB4 [3] = target: T1, human LILRB4; assay: cell-based or functional assay; remark: listed apart in the source
human LILRB4 [4] = target: T1, human LILRB4; assay: FACS, 293F-hLILRB4 cells
Outline: as §1

human LILRB4 [5] = target: T1, human LILRB4; assay: cell-based or functional assay; remark: listed apart in the source
[6] = target: T4, cynomolgus (Macaca fascicularis) LILRB4 (cynomolgus (Macaca fascicularis)); assay: FACS, CHO-S-cynoLILRB4 cells
T4 construct: whole, on cells; also called cynoLILRB4; CHO-S-cynoLILRB4
Experimental: The protocol for FACS analysis is described as follows: [0438] (a) Cells were harvested by centrifugation at 300 g for 3 mins. […] (b) The cells were washed for 2 times with FACS buffer by centrifuging at 300 g for 3 mins and the supernatant was discarded. [0440] (c) Cell were resuspended and seeded into assay plate (2×10⁵ cells/well) in 50 μl FACS buffer. […] Cells were incubated with antibodies at 4° C. for 1 hour. […] (d) Step (b) was repeated and the cells were resuspended with 100 μl diluted 2nd antibody, incubated at 4° C. for 1 hour in the dark. [0442] (e) Step (b) was repeated and the cells were resuspended with 100 μl FACS buffer. The cells were kept in dark for FACS analysis.

| Binder | binding result (human LILRB4 [1]) | binding result (human LILRA6 protein) | binding result (human LILRB3) | FcγR stimulation (TNF-α, pg/mL) (human LILRB4 [2]) [pg/mL] | Fold change (Compared to isotype) (human LILRB4 [2]) [fold] | EC50 (nM), ADCC on THP-1 cells (human LILRB4 [3]) [nM] | Max cell cytotoxicity (%), ADCC on THP-1 cells (human LILRB4 [3]) [%] | EC50 (human LILRB4 [4]) [nM] | Max MFI (human LILRB4 [4]) [MFI] | ADCP (%) at 133.3 nM, macrophages and MV-4-11 cells (human LILRB4 [5]) [%] | EC50 [6] [nM] |
| --- | --- | --- | --- | --- | --- | --- | --- | --- | --- | --- | --- |
| h8-B3-F6-H8 (antibody, V domains shown, humanized antibody of ch8-B3-F6-H8; also called humanized 8-B3-F6-H8) VH: EVQLVESGGGLVQPGGSLRLSCAASGFDFSRYWMSWVRQAPGKGLVWIGEINPESSAINYAPSLKDRFTISRDNAKNTLYLQMNSLRAEDTAVYYCATSMTMDYWGQGTLVTVSS VL: DIQMTQSPSSLSASVGDRVTITCKASQDIKSYLSWYQQKPGKAPKTLIYYATSLAGGVPSRFSGSGSGTDYTLTISSLQPEDFATYYCLQHGESPYTFGGGTKLEIK | binds | – | – | – | – | – | – | – | – | – | – |
| ch44-F10-B6-D4 (antibody, V domains shown) VH: EVHLVESGGGLVKPGGSLKLSCAASGFTFSSYAMSWVRQTPEKRLEWVATISSGGSYIYYPDSVKGRFTISRDNAKNTLYLQMSSLRSEDTAMYYCARQDWDGGDYYAMDYWGQGTSVTVSS VL: DIVMTQSPSSLAVSAGEKVTMSCKSSQSVLYSSNQKNFLAWYQQKPGQSPKLLIYWASTRESGVPDRFTGSGSGTDFTLTISSVQAEDLAVYYCHQYLSSLTFGAGTKLELK | – | no binding | no binding (tested: up to 66.67 nM) | 126 | 3.97 | 1.43 | 0.43 | 0.57 | 5470 | 3.12 | 103 |
| h2-H1-D7-E5-D5 (antibody, V domains shown, humanized antibody of ch2-H1-D7-E5-D5; also called humanized 2-H1-D7-E5-D5) VH: EVQLVESGGGLVQPGGSLRLSCAASGFTFSSFGMHWVRQAPGKGLEWVAYISSGSSSIYYADTVKGRFTISRDNAKNSLYLQMNSLRAEDTAVYYCARGTGTGAMDYWGQGTLVTVSS VL: DIQMTQSPSSLSASVGDRVTITCRTSQDISNYLNWYQQKPGKAPKLLIYYTSKLHSGVPSRFSGSGSGTDFTFTISSLQPEDIATYFCQQGNTLPWTFGGGTKLEIK | binds | – | – | – | – | – | – | – | – | – | – |
